The series in a line: yeast display, Sf9 membrane polyspecificity reagent, FACS + sequencing; frameworks hold sequencing errors. Summed up: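 Synthetic nanobody libraries on Saccharomyces cerevisiae BJ5465 were galactose-induced for 36–48 hours, stained 1 hour at 4 °C with 10% biotinylated, detergent-solubilized Sf9 membrane reagent and enriched on streptavidin microbeads. FACS then separated cells into low and high (top ~1%) gates by anti-HA (expression) and streptavidin (reagent binding) fluorescence. Genes were colony-PCR amplified, MiSeq 2 × 250 sequenced and CDR-length filtered. A clone's polyreactivity label is that of its gate of origin.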
As to “QVQLVESGGGLVQAGCSLLLICADSGFIFYGYVMGWYRQAPGKEMEWVAGITSSGTSTYADSVKGRFTISRDNAKNTVFLQMNSLKPEDTAAYYCAALRRQYGARDYDYWGQGTQVTVSA”, the “polyreactivity (PSR sort gate)” value was “low polyreactivity”.
Consider “QVQLVESGGGLVQAGCSLLLSCAASGRSFTHNAMGWYRPAHGPERELGAAITSRGRTTYADSVKGRFTISRDNAKNTVYVQMNSLKPEDTAVYYCATSVWFPITSYDYWGQGTQVTVSS”, for which the “polyreactivity (PSR sort gate)” value is recorded as “low polyreactivity”.
Consider “QVQLVESGGGLVQAGCSLRISCAASGFIFKRNAMGWYRQAPGKERELVAAITWRGGSTYYADSVKGRFTISRDTAKNTVYLQMNSLKPEDTAVYYCAADSYYPRGYRTGWSESAYVSWGQGTLVTVSS”, for which the “polyreactivity (PSR sort gate)” value is “high polyreactivity”.
Consider “QVQLVESGGGLVQAGCSLRISCAASGSTFYINAMGWYRQAPGKERELVAAISRGGSTYYADSVKGRFTISRDNAKNTVYLQMNSLKPEDTAVYYCAADFSRSYRFNYWGQGTQVTVSS”, for which the “polyreactivity (PSR sort gate)” value is “high polyreactivity”.
For “QVQLVESGGGLVQAGCSLRLICAASGFIFRTYAMGWYRQAPGKESELVAAISRGGVRTYYADSVKGRFTISRDNAKNTVYLQMNSLKPEDTAVYYCAADDVHGIYDYWGQGTQVTVSS”, the “polyreactivity (PSR sort gate)” value was “high polyreactivity”.
As for “QVQLVESGGGLVQAGCSLRLICAASRSTFTDNAMGWYRQAPGKESELVAAISTGTSTYADSVKGRFTISRDNATNTVYLQMNRLKPEDTAGYYCAADVGIRPLNYHPYNYWGQGTQVTVSS”, the “polyreactivity (PSR sort gate)” value is “low polyreactivity”.
Turning to “QVQLVESGGGLVQAGCSLRLRCAASGRIYPYYAMGWYRQAPGKERELVAAIRGGGTSTRYADSVKGRFTISRDNAKKTVDLQMNSLKPSDTADYYCAAVWYSGSTRYSKYLEYYYWGQGTQVTVSS”, the “polyreactivity (PSR sort gate)” value is given as “high polyreactivity”.
As to “QVQLVESGGGLVQAGCSLRLSCAACGFTFIPNAMGWYRQAPAKERELVAAISFGGGSTYYADSVKGRFTISRDNAKNTVYLQMNSMKPEETAVYYCAAEAFVSYEPYWYVRYYSSYNYWGQGTQVTVSS”, the “polyreactivity (PSR sort gate)” value is listed as “high polyreactivity”.
For the sequence “QVQLVESGGGLVQAGCSLRLSCAASGFTFSYYAMGSYRQAPGKERELVASISRSGNTYYADSVKGRFTISRDNAKNTVYLQMNSLKPEDTAVYYCAAKRKSYYSYNFDYWGQGTQVTVSS”, the “polyreactivity (PSR sort gate)” value was “high polyreactivity”.
Turning to “QVQLVESGGGLVQAGCSLRLSCAASGIIFALNAMGWYRQAPGKERELVAAISDGDSTHYADSVKGRFTISRDNAKNTVYLQMNSLKPEDTAVYYCAVDNRDLFFYPGGFDYWGQGTQVTVSS”, the “polyreactivity (PSR sort gate)” value is given as “low polyreactivity”.
To “QVQLVESGGGLVQAGCSLRLSCAASGITFRRYTMGWYRPAPGKERELVATISLSDGNTYYADSVKGRFTISRDNAKNTVYLQMNSLKPEDTAVYYCTADVRYGRDHWGQATQVTVSS” belongs “low polyreactivity”; to “QVQLVESGGGLVQAGCSLRLSCAASGLTSTANAMGWYRQAPGKERELVAGITTGGSTYYADSVKGRFTISRDNAKNTVYLQMISLKPEDTAVYYCNAPTYADTTYDYWGQGTQVTVSS”, “low polyreactivity”.
Take “QVQLVESGGGLVQAGCSLRLSCAASGNIFYRYAKGRYRPAPGKERELVAGITWSGGSTYYADSVKGRFTISRDNAKNTVYLQMTSLKPEDTAVYYCGQANYYWGQGTQVTVSS”: the “polyreactivity (PSR sort gate)” value was “low polyreactivity”.
To “QVQLVESGGGLVQAGCSLRLSCAASGRIFDYYAMGWNRQAPGKERELVAAISYSGGSTHYADSVKGRFTISRDNAKNSVYLQMISLKPEDTAVYYCAGWAWSGVEYDYWGQGSQVTVSS” belongs “low polyreactivity”.
In the case of “QVQLVESGGGLVQAGCSLRLSCAASGRISKRYTMGWYRQAPGKERELVAAINSSTSTSYADSVKGRFTISRDNAKNTVYLKMNSRKPEDTAVYYCNARYNYSYDYNYWGQGTQVTVSS”, the “polyreactivity (PSR sort gate)” value was “low polyreactivity”.
Under “QVQLVESGGGLVQAGCSLRLSCAASGRTFDSYTMGWYRQAPGKERELVAAIRSSGGRTYADSVKGRFTISRDNAKNTVYLQMNSLKPEDTAVYYCDADRRGSHYYRYKYGYWGQGTQVTVSS” stands “high polyreactivity”; under “QVQLVESGGGLVQAGCSLRLSCAASGRTFRYYAMGWYRQAPGKERELVAAISGRGGSTYYADSVKGRFTISRDNAKNTVYFQMNSLKPEDTAVYYCADSFYSIRYDYWGQGTQVTVSS”, “high polyreactivity”; under “QVQLVESGGGLVQAGCSLRLSCAASGRTFYYYAMGWYRQAPGKERELVAAISKSGGSTYYADSVKGRFTISRDNAKNTVYLQMNSLKPEDTAVYYCAALTTHAPHSYNYWGQGTQVTVSS”, “low polyreactivity”.
For “QVQLVESGGGLVQAGCSLRLSCAASGSIFFSYAMGWYRQAPGKEREFVAAINSDDASTYADSVKGRFTISRDNAKNTVYLQKNSLNPEDTAVYYCAASFLWSWYDYWGQGTHVTVSS”, the “polyreactivity (PSR sort gate)” value is recorded as “low polyreactivity”.
Consider “QVQLVESGGGLVQAGCSLRLSCAASGSIFGFYAMGWYRQAPGKERELVATIRSSGGNTYYADSVKGRFTISRDNAKNTVYLEMNSLKPEDTGVFYCAASFLIRAYVDRNDYWGLGTQVTVSS”, for which the “polyreactivity (PSR sort gate)” value was “low polyreactivity”.
As for “QVQLVESGGGLVQAGCSLRLSCAASGSIFSTYAMGWYRQAPGKERELVAAITSDGTYADSVKGRFTISRDNARNTVYLQMNSLKPEDTAVYYWAAYYPYTRHGDYWGQGTQVTVSS”, the “polyreactivity (PSR sort gate)” value was “low polyreactivity”.
Under “QVQLVESGGGLVQAGCSLRLSCAASGSIFTSYAMGWYRQAPGKERELVAAINRSSGTTYYAHSVKGRFTISRDTAKNTVYLQMNSLKREDTAVYYCAKEYGIYTDTPYYYWGQGTQVTVSS” stands “low polyreactivity”; under “QVQLVESGGGLVQAGCSLRLSCAASGSIFYFYGMGWYRQAPGKERELVASITYSGTSTYYADSVKGRFTISRDNAMITVYLQMNSLKPEDTAVYYCAASFYTVNSWYDSWGQGTQVTVSS”, “low polyreactivity”; under “QVQLVESGGGLVQAGCSLRLSCAASGSIIIGNAMGWYRKSPGKERELVAVINGSDGTTYYADSVKGRFTNSRDNAKNTVYLQMNSLKPEDTAVYYCNADFIDPSVYDYNYWGQGTQVTVSS”, “low polyreactivity”.
As for “QVQLVESGGGLVQAGCSLRLSCAASGSISSFYAMGWYRQAPGKERELVAGITSGGSTNYADSVKGRFTISRDNAKNTVYLQMNSLKPEDTAVYYCAAVYKGAGTHFDVFVKEFDYWGLGTQVTVSS”, the “polyreactivity (PSR sort gate)” value was “low polyreactivity”.
Take “QVQLVESGGGLVQAGCSLRLSCAASGSTFKRYAMGWYRQAPGKERELVASISSGGSTNYADSVKGRFTISRDNAKNTVYLQMNSLKPEDTAVYYCATRGHYRQTINYWGQGTQVSVSS”: the “polyreactivity (PSR sort gate)” value is reported as “high polyreactivity”.
Turning to “QVQLVESGGGLVQAGCSLRLSCAASGSTFSPNAMGWYRQAPGKERELVASIRIGGRTNYADSVKGRFTISRDNAKNTVYLQMNSLKPEDTAVYYCARRHYYSRFTVSKLSRYDYWGQGTQVTVSS”, the “polyreactivity (PSR sort gate)” value is on record as “high polyreactivity”.
On to “QVQLVESGGGLVQAGCSLRLSCAASGSTLYTYAMGWYRQAPGKERELVATISWSGSSTYYADSVKGRFTISRDNAKNTVYLQMNSLKPEDTAVYYCAAQYHYWYRLDYWGQGTQVTVSS”, for which the “polyreactivity (PSR sort gate)” value is recorded as “high polyreactivity”.
Regarding “QVQLVESGGGLVQAGCSLRLSCAASGSTVYYKAMGWYREAPGKERELVAAITSGGRTKYADSVKGRFTISRDNAKNTVYLQMNSLKPEDTAVYYCNTYNRRSGTLPKPYDYWGQGTQVTVSS”, the “polyreactivity (PSR sort gate)” value is on record as “high polyreactivity”.
“QVQLVESGGGLVQAGCSLRLSCAASGYIFYPYAMGWYRQAPGKERELVAAISGSGSGTYYADSVKGRFTISRDNAKNTVYLQMNSLKPEDTADYYCAKYVYDNVWMDYWGQGTQVTVSS”: the “polyreactivity (PSR sort gate)” value is listed as “high polyreactivity”.
To “QVQLVESGGGLVQAGCSLRLSCASSGLTFSFYAMGWYRQAPGKERELVAAISKGGGSTSYADSVKGRFTISRDNAKNTVYLQMNSLKPEDTAVYYCAARYYYSRSRLYYYWGQVTQVTVSS” belongs “high polyreactivity”; to “QVQLVESGGGLVQAGCSLRLSCSASGLTFYANAMGWYRQAPGKERELVAAISKSGGNTYYAYSVKGRFTISRDNAKNTVYLQMNSLKPEDTAVYYCAVGYPRGYVDVDSWGQGTQVTVSS”, “high polyreactivity”; to “QVQLVESGGGLVQAGDSLRLSCAASGFIFYYYTMGWYRQAPGKEREFVAAITYSGGRTYYADSVKGRFTISRDNAKNTVYLQMNSLKPQDTAVYYCADVPRYGPSSRMDYWGQGTQVTVSS”, “high polyreactivity”.
For the sequence “QVQLVESGGGLVQAGGCLRISCAASGSTFPNYAMGWYREAPGKERELVARISYNVGRTYYADSVKGRFTISRDNAKNTVYLQMNSLKPEDTAVYYCAAGVGWRYRVRWYYSLGDYWGQGTQVTVSS”, the “polyreactivity (PSR sort gate)” value is recorded as “high polyreactivity”.
Turning to “QVQLVESGGGLVQAGGCLRLSCAASGSIFDHYVMGWYREAPGKERELVAAISSGDRPNYADSVKGRFTISRDNAKNPVYLQMNSLKPEETAVYYCAAVVHVSPYSYDYWGQGTQVTVSA”, the “polyreactivity (PSR sort gate)” value is “low polyreactivity”.
For “QVQLVESGGGLVQAGGCLRLSCASSGRTFHLYAMGWYRQAPGKERELVAAITWSSGRTYYSDSVKGRFTISRDNAKNTVYVQMKSLKPEDTAVFYCAADVWGGLLPGYDYWGQGTQVTVSS”, the “polyreactivity (PSR sort gate)” value is on record as “high polyreactivity”.
Consider “QVQLVESGGGLVQAGGCLRLSCDASGFTFAFYAMGWYRQAPGKEIELVAAISRRGGSTTYADSVKGRFTISRDNAKNTVYLQMHSLKPEDTAVYYCNAVSTRNPGPDSYYWGQGTQVTVSS”, for which the “polyreactivity (PSR sort gate)” value is “high polyreactivity”.
Regarding “QVQLVESGGGLVQAGGGLRLSCAASGFIFSLYAMGWYRQAPGKERELVAAISKRGGSTNYADSLKGRFTISRDNAKNTVYLQRNSLKPDVTAVYYCAATRNYYGRYDYWGQGTQVTVSS”, the “polyreactivity (PSR sort gate)” value is reported as “high polyreactivity”.
With “QVQLVESGGGLVQAGGGLRLSCAASGFTFYLYVMGWYRQAPGKERELVARISRSGGTTYYADSVKGRFTISRDNAKNTVYLQMNSLKPEDTAVYYCAARRYGVPPTYDYCGQGTQVTVSS”, the “polyreactivity (PSR sort gate)” value is “high polyreactivity”.
For the sequence “QVQLVESGGGLVQAGGIIRLSCAASGLIFSRYAMGWYRQAPGKETELVAAITQSGTSTYYADSVKGRFTISRDNANNTVYLQMTILKPEDTAVYYCNAYPQYRYDYWGQGTQVTVSS”, the “polyreactivity (PSR sort gate)” value is listed as “low polyreactivity”.
Turning to “QVQLVESGGGLVQAGGILRLICAASGRIFGPYAMGWYRQAPGKERELVADITGGGTYYADSVKGRFTISRDNAKNTVYLQMFSLKPEDTSVYYCAADYSSYTSFRYDYWGQGTHVTVSS”, the “polyreactivity (PSR sort gate)” value is recorded as “low polyreactivity”.

These data come from the nanobody polyreactivity screen of Harvey et al. (2022).
